From patent publication US20120121583A1 (Genentech, published 2012)

T1: Human recombinant soluble TWEAK (human, UniProt O43508 99-249)
T1 sequence: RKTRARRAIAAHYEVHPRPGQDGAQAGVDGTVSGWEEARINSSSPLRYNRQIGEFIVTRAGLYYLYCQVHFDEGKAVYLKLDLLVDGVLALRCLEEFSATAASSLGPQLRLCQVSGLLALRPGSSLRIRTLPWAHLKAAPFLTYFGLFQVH

T2: Biotinylated human soluble TWEAK (amino acids 99-249 of SEQ ID NO: 60) (human, UniProt O43508 99-249, biotinylated (sites not given))
T2 construct: Immobilised on the streptavidin sensor in the Biacore half-life assay; also called Human TWEAK; soluble human TWEAK
T2 sequence: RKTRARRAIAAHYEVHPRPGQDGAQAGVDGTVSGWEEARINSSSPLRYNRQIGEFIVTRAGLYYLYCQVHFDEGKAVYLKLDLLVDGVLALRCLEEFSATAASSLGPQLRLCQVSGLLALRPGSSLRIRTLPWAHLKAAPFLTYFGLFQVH

T3: human Flag-tagged soluble TWEAK (amino acids 106-249) (human, UniProt O43508 106-249)
T3 construct: N-terminal placement here is only an order of listing; not shown: Flag tag
T3 sequence: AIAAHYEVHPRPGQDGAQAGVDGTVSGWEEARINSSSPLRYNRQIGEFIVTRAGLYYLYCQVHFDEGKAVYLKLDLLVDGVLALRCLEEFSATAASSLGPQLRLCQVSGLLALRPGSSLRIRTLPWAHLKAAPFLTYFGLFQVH

T4: Biotinylated TWEAK (Homo sapiens (Human), UniProt O43508 99-249, Biotinylated for capture on the streptavidin sensor; the site or sites of biotinylation are not stated. The active form is a soluble homotrimer; one protomer is given.)
T4 sequence: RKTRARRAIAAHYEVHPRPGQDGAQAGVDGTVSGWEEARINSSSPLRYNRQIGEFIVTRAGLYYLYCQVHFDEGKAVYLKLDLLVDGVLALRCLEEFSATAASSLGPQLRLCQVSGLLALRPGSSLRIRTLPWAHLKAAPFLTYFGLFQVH


Columns and labels:
[1] = molecular target: T1, Human recombinant soluble TWEAK; assay: cell-based or functional assay
[2] = molecular target: T2, Biotinylated human soluble TWEAK (amino …); assay: Biacore SPR, biotinylated TWEAK on SA sensor, antibody 100 nM as analyte, 25 C; t1/2 = ln(2)/(60 x kd)
Experimental: A Biacore 2000 instrument was used with a Biacore streptavidin coated sensor mounted into the system. The system buffer HBS-ET (10 mM HEPES pH 7.4, 150 mM NaCl, 1 mM EDTA, 0.05% Tween® 20) was used at a flow rate of 100 μl/min. The sample buffer was the system buffer. Biotinylated human soluble TWEAK (amino acids 99-249 of SEQ ID NO: 60) and biotinylated murine soluble TWEAK (amino acids 81-225 of SEQ ID NO: 61) was immobilized on different flow cells on the SA sensor at 150 RU each. The flow cell FC1 was used as a blank reference cell. Each antibody was injected into the system as an analyte at 100 nM at 100 μl/min for 2 min association time. The dissociation of the immune complexes were monitored for 5 min. The sensor surface was washed with HBS-ET for 10 seconds and regenerated using 2×2 minutes injections with 10 mM glycine pH 2.25. This procedure was done at 25° C. The kinetically rate limiting step of the complex dissociation phase in the interval [240 s-300 s] was taken to calculate the dissociation rate kd [1/s] (Biacore Evaluation Software 4.0). According to the equation t1/2 diss=ln(2)/(60×kd), the half-life of the immunocomplexes in minutes was calculated.

[3] = molecular target: T3, human Flag-tagged soluble TWEAK (amino …); assay: competition ELISA: antibody pre-incubated with human Flag-TWEAK 2.5 ng/ml, binding to coated human Fn14:Fc
Experimental: 96-well Maxisorp® plates (Nunc) were coated with 100 μl 1 μg/ml human Fn14:Fc (extracellular domain of human Fn14 (amino acids 1-75) fused to Fc portion of human IgG1) in PBS per well for 1.5 h at room temperature and blocked with a solution of 5% FBS in PBS for 30 minutes at room temperature under shaking. […] Wells were filled with 100 μl of anti-FLAG-HRP detection antibody, diluted 1:5000 in blocking buffer, and incubated for 1 h at room temperature. After four more wash steps, the signal was developed by addition of 100 μl 3,3,5,5-Tetramethylbenzidine (TMB) solution for approximately ten minutes. The reaction was stopped by adding 100 μl of 1 N HCl, and absorbance measured at 450 nm (reference wavelength 620 nm).

Biotinylated TWEAK [4] = molecular target: T4, Biotinylated TWEAK; assay: Biacore cross-blocking on immobilised biotinylated TWEAK; binding of antibody 2 after saturation with competitor antibody 1 TW-301chi (row), 100 nM each
Experimental: (§1) Because of the individual biochemical properties of the TWEAK protein another method had to be developed using TWEAK as ligand. Biotinylated TWEAK was immobilized on the streptavidin-coated chip surface and epitope coverage of consecutively injected antibodies (antibody 1) was measured. The aim was to detect the relative binding levels of a secondary antibody (antibody 2) in the presence of an already bound primary antibody. From these relative binding levels a quotient was calculated (Ab2/Ab1, molar ratio given in %, table 7).
(§2) 5 nM of biotinylated TWEAK was immobilized at 20 μl/min for 1 min on a streptavidin coated sensor flow cell. Primary and secondary mAbs were consecutively injected at 10 μl/min for 4 min into the system at 100 nM each until saturation of the respective TWEAK epitopes was achieved. As a reference an SA coated flow cell was used.
(§3) The system was washed with HBS-ET for 20 sec at 30 μl/min followed by two regeneration steps with 1 min at 30 μl/min 6 M GuadHCl and 100 mM HCl. […] The process was repeated by the immobilization of native biotinylated TWEAK protein (feed batch mode) on the same flow cell until the streptavidin sensor surface was completely saturated by biotinylated TWEAK.

Biotinylated TWEAK [5] = molecular target: T4, Biotinylated TWEAK; assay: Biacore cross-blocking on immobilised biotinylated TWEAK; binding of antibody 2 after saturation with competitor antibody 1 TW-304chi (row), 100 nM each
Experimental: as §1, §2, §3

Biotinylated TWEAK [6] = molecular target: T4, Biotinylated TWEAK; assay: Biacore cross-blocking on immobilised biotinylated TWEAK; binding of antibody 2 after saturation with competitor antibody 1 TW-305chi (row), 100 nM each
Experimental: as §1, §2, §3

[7] = molecular target: Mouse soluble TWEAK (mouse) (UniProt O54907); assay: competition ELISA: antibody pre-incubated with mouse soluble TWEAK 4 ng/ml, binding to coated mouse Fn14:Fc

Row | IL-8 Secretion IC50 [1] | t/2 diss [2] | IC50 [3] | MR % (Ab2/Ab1 molar ratio) (Biotinylated TWEAK [4]) | MR % (Ab2/Ab1 molar ratio) (Biotinylated TWEAK [5]) | MR % (Ab2/Ab1 molar ratio) (Biotinylated TWEAK [6]) | IC50 [7] | Binder
1 | 122 ng/mL | 37 min | 2.6 ng/mL | 6% | 0% | 1% |  | TW-304chi (antibody, human IgG1, kappa, V domains shown, also called chimeric antibody 304) VH: QSLEESGGDLVKPGASLTLTCKASGFSFSSTYYMCWVRQAPGKGLEWIGCIYVGSSGAPYYASWAKGRFTISKTSSTTVALQMTSLTPADTATYVCTRSVHFGDLWGPGTLVTVSS VL: DVVMTQTPSPVSAAVGGTVTIKCQASQSIGNDLSWYQQKPGQRPKLLIYSVSTLASGVPSRFKGSGSGTEYSLTISDVQCADAATYYCQCIDYGNNYVGNTFGGGTEVVVKR
2 | 128 ng/mL |  | 3.4 ng/mL |  |  |  | 4.7 ng/mL | TW-301 (antibody, V domains shown, also called Antibody 301; rabbit antibody 301) VH: QSLEESGGGLVKPGASLTLTCTASGFTFNANYWICWVRQAPGKGLEWIACIYGGGNSGAYYASWATGRFTISRTSSTTVTLQMTSLTAADTATYFCARGPISRDLWGPGTLVTVSL VL: DVVMTQTPASVSEPVGGTVTIKCQASQSIYSSLAWYQQKPGQPPKLLIYDAFDLASGVSSRFTGSGSGTQFTLTISDLECADAATYYCQSTDYGNSWDGNPFGGGTEVVVT
3 | 121 ng/mL | 110 min | 2.8 ng/mL | 0% | 0% | 0% | 6.4 ng/mL | TW-301chi (antibody, human IgG1, kappa, V domains shown, also called chimeric antibody 301) VH: QSLEESGGGLVKPGASLTLTCTASGFTFNANYWICWVRQAPGKGLEWIACIYGGGNSGAYYASWATGRFTISRTSSTTVTLQMTSLTAADTATYFCARGPISRDLWGPGTLVTVSL VL: DVVMTQTPASVSEPVGGTVTIKCQASQSIYSSLAWYQQKPGQPPKLLIYDAFDLASGVSSRFTGSGSGTQFTLTISDLECADAATYYCQSTDYGNSWDGNPFGGGTEVVVTR
4 | 104 ng/mL | 147 min | 2.6 ng/mL | 9% | 3% | 0% |  | TW-305chi (antibody, human IgG1, kappa, V domains shown, also called chimeric antibody 305; Antibody 305 (chimeric)) VH: QEQLVESGGGLVQPGGSLTLSCKASGFDFSTYYMSWVRQAPGKGLEWIGTVYVRQGTTYYASWLNGRFTISSDNAQNTVDLKMNSLTAADTATYFCAKGGYNYDDAFVIWGPGTLVTVSF VL: AIEMTQTPFSVSAAVGGTVTINCQASQNIYSNLAWYQQKPGQPPKLLMYTASYLASGVPSRFKGSGSRTEYTLTISGVQCADAATYYCQTAYYNSRPDTVAFGGGTEVVVKR
